Positions count from the first letter of the chain named. Numbers in names are those of the source.
B1: variant CD80 IgV-Fc (inert) H18T/A26N/E35D/M47L/V68M/A71G (Fc fusion)
chain: VIHVTKEVKEVATLSCGTNVSVEELNQTRIYWQKDKKMVLTMMSGDLNIWPEYKNRTIFDITNNLSIMILGLRPSDEGTYECVVLKYEKDAFKREHLAEVTLSVKAD
B2: variant CD80 IgV-Fc (inert) H18I/A26P/E35D/M47V/V68M/A71G (Fc fusion)
chain: B1 chain with T18I, N26P, L47V
B3: variant CD80 IgV-Fc (inert) H18V/A26K/E35D/M47L/V68M/A71G (Fc fusion)
chain: B1 chain with T18V, N26K
B4: variant CD80 IgV-Fc (inert) H18C/A26P/E35D/M47L/V68M/A71G (Fc fusion)
chain: B1 chain with T18C, N26P
B5: variant CD80 IgV-Fc (inert) H18Y/E35D/M47V/V68M/A71G (Fc fusion)
chain: B1 chain with T18Y, N26A, L47V
B6: CD80 K36G/K37Q/M38I/L40M ECD-Fc (Fc fusion)
chain: VIHVTKEVKEVATLSCGHNVSVEELAQTRIYWQKEGQIVMTMMSGDMNIWPEYKNRTIFDITNNLSIVILALRPSDEGTYECVVLKYEKDAFKREHLAEVTLSVKADFPTPSISDFEIPTSNIRRIICSTSGGFPEPHLSWLENGEELNAINTTVSQDPETELYAVSSKLDFNMTTNHSFMCLIKYGHLRVNQTFNWNTTKQEHFPDN
B7: CD80 A12V/S15F/Y31H/M38L/T41G/M43L/D90N/T130A/P137L/N149D/N152T ECD-Fc (Fc fusion)
chain: VIHVTKEVKEVVTLFCGHNVSVEELAQTRIHWQKEKKLVLGMLSGDMNIWPEYKNRTIFDITNNLSIVILALRPSDEGTYECVVLKYEKNAFKREHLAEVTLSVKADFPTPSISDFEIPTSNIRRIICSASGGFPELHLSWLENGEELDAITTTVSQDPETELYAVSSKLDFNMTTNHSFMCLIKYGHLRVNQTFNWNTTKQEHFPDN
B8: CD80 V4M/L70Q/A91G/I118V/T120S/T130A/K169E ECD-Fc (Fc fusion)
chain: VIHMTKEVKEVATLSCGHNVSVEELAQTRIYWQKEKKMVLTMMSGDMNIWPEYKNRTIFDITNNLSIVIQALRPSDEGTYECVVLKYEKDGFKREHLAEVTLSVKADFPTPSISDFEVPSSNIRRIICSASGGFPEPHLSWLENGEELNAINTTVSQDPETELYAVSSELDFNMTTNHSFMCLIKYGHLRVNQTFNWNTTKQEHFPDN
B9: CD80 A91G/F92L/F108L/I118V/T120S ECD-Fc (Fc fusion)
chain: B8 chain with M4V, Q70L, F92L, F108L, A130T, E169K
B10: CD80 A91G/L102S ECD-Fc (Fc fusion)
chain: B6 chain with G36K, Q37K, I38M, M40L, A91G, L102S
B11: CD80 I67F/L70R/E88G/A91G/I118V/T120S/T130A ECD-Fc (Fc fusion)
chain: B8 chain with M4V, I67F, Q70R, E88G, E169K
B12: CD80 I67T/L70Q/A91G/I118V/T120S ECD-Fc (Fc fusion)
chain: B8 chain with M4V, I67T, A130T, E169K, N196H
B13: CD80 L70Q/A91G/T110A/I118V/T120S/T130A ECD-Fc (Fc fusion)
chain: B8 chain with M4V, T110A, E169K
B14: CD80 V22A/L70Q/S121P ECD-Fc (Fc fusion)
chain: B6 chain with V22A, G36K, Q37K, I38M, M40L, L70Q, S121P
B15: CD80 S44P/L70Q/A91G/T130A ECD-Fc (Fc fusion)
chain: B8 chain with M4V, S44P, V118I, S120T, E169K
B16: CD80 A91G/S103P ECD-Fc (Fc fusion)
chain: B6 chain with G36K, Q37K, I38M, M40L, A91G, S103P
B17: CD80 K37E/F59S/L70Q/A91G/T120S/T130A ECD-Fc (SEQ ID NO 1397) (Fc fusion)
chain: B8 chain with M4V, K37E, F59S, E169K, K185E
B18: CD80 R29V/M43Q/E81R/L85I/K89R/D90L/A91E/F92N/K93Q/R94G ECD-Fc (Fc fusion)
chain: VIHVTKEVKEVATLSCGHNVSVEELAQTVIYWQKEKKMVLTMQSGDMNIWPEYKNRTIFDITNNLSIVILALRPSDEGTYRCVVIKYERLENQGEHLAEVTLSVKADFPTPSISDFEIPTSNIRRIICSTSGGFPEPHLSWLENGEELNAINTTVSQDPETELYAVSSKLDFNMTTNHSFMCLIKYGHLRVNQTFNWNTTKQEHFPDN
B19: CD80 E24G/R29D/Y31L/Q33H/K36G/M38I/T41A/M43R/M47T/F59L/E81V/L85R/K89N/A91T/F92P/K93V/R94L/H96R/N149S/C182S ECD-Fc (Fc fusion)
chain: VIHVTKEVKEVATLSCGHNVSVEGLAQTDILWHKEGKIVLAMRSGDTNIWPEYKNRTILDITNNLSIVILALRPSDEGTYVCVVRKYENDTPVLERLAEVTLSVKADFPTPSISDFEIPTSNIRRIICSTSGGFPEPHLSWLENGEELSAINTTVSQDPETELYAVSSKLDFNMTTNHSFMSLIKYGHLRVNQTFNWNTTKQEHFPDN
B20: variant CD80 IgV-Fc E35D/M47L (Fc fusion)
chain: B1 chain with T18H, N26A, M68V, G71A
B21: variant CD80 IgV-Fc E35D/D46V/M47L (Fc fusion)
chain: B1 chain with T18H, N26A, D46V, M68V, G71A
B22: variant CD80 IgV-Fc E35D/D46V/V68M (Fc fusion)
chain: B1 chain with T18H, N26A, D46V, L47M, G71A
B23: variant CD80 IgV-Fc E35D/M47V/V68M/K89N (Fc fusion)
chain: B1 chain with T18H, N26A, L47V, G71A, K89N
B24: variant CD80 IgV-Fc E35D/M47V/N48K (Fc fusion)
chain: B1 chain with T18H, N26A, L47V, N48K, M68V, G71A
B25: variant CD80 IgV-Fc E35D/N48K/V68M (Fc fusion)
chain: B1 chain with T18H, N26A, L47M, N48K, G71A
B26: variant CD80 IgV-Fc E35D/D46V/L85Q (Fc fusion)
chain: B1 chain with T18H, N26A, D46V, L47M, M68V, G71A, L85Q
B27: variant CD80 IgV-Fc E35D/M47V/N48K/V68M (Fc fusion)
chain: B1 chain with T18H, N26A, L47V, N48K, G71A

target: human PD-L1 (human) (UniProt Q9NZQ7); assay: flow cytometry, CHO/PD-L1 cells; MFI over CD80 WT IgV-Fc
Sequence (Q9NZQ7 19-290): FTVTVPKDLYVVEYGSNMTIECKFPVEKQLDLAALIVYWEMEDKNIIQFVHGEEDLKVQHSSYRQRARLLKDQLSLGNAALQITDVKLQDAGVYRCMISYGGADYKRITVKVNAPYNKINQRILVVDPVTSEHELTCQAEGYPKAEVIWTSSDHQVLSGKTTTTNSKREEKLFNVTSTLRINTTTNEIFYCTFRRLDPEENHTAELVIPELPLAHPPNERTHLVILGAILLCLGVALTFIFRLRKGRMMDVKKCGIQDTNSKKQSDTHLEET

Row | Fold change to WT CD80 | Binder
1 | 415 fold | B1
2 | 393 fold | B2
3 | 408 fold | B3
4 | 406 fold | B4
5 | 393 fold | B5

target: human CTLA-4 (human) (UniProt P16410); assay: flow cytometry, CHO/CTLA4 cells; MFI over CD80 WT IgV-Fc
Sequence (P16410 36-223): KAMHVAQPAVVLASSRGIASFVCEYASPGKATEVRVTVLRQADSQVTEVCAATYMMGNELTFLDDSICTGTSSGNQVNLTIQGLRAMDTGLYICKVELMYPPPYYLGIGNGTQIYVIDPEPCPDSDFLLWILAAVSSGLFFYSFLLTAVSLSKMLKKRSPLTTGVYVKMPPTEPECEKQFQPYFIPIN

Row | Fold change to WT CD80 | Binder
6 | 15.1 fold | B1
7 | 15.8 fold | B2
8 | 16.6 fold | B3
9 | 16.9 fold | B4
10 | 17.1 fold | B5

target: human PD-L1 (human) (UniProt Q9NZQ7); assay: flow cytometry, Expi293F cells transfected with PD-L1

Row | MFI | parental ratio | Binder
11 | 959 MFI | 0.05 | B6
12 | 5 MFI | 0.08 | B7
13 | 6 MFI | 0.09 | B8
14 | 16 MFI | 0.11 | B9
15 | 5 MFI | 0.08 | B10
16 | 6 MFI | 0.08 | B11
17 | 5 MFI | 0.08 | B12
18 | 5 MFI | 0.07 | B13
19 | 5 MFI | 0.07 | B14
20 | 5 MFI | 0.07 | B15
21 | 9 MFI | 0.13 | B16
22 | 6 MFI | 0.08 | B17
23 | 1580 MFI | 0.09 | B18
24 | 1120 MFI | 0.06 | B19

target: human CTLA-4 (human) (UniProt P16410); assay: flow cytometry, CHO cells expressing huCTLA-4

Row | MFI at 33.3 nM | Binder
25 | 48000 MFI | B20
26 | 45000 MFI | B21
27 | 31200 MFI | B22
28 | 29500 MFI | B23
29 | 47400 MFI | B24
30 | 33600 MFI | B25
31 | 48000 MFI | B26
32 | 32900 MFI | B27

target: human PD-L1 (human) (UniProt Q9NZQ7); assay: flow cytometry, CHO cells expressing huPD-L1

Row | MFI at 33.3 nM | Binder
33 | 7530 MFI | B20
34 | 7990 MFI | B21
35 | 26100 MFI | B22
36 | 21800 MFI | B23
37 | 4850 MFI | B24
38 | 4040 MFI | B26
39 | 23500 MFI | B27

target: CD28 (human) (UniProt P10747); assay: flow cytometry, Jurkat/IL2 reporter cells (CD28)

Row | MFI at 33.3 nM | Binder
40 | 411 MFI | B20
41 | 642 MFI | B25
42 | 196 MFI | B26

target: CD28 (human) (UniProt P10747); assay: flow cytometry, Jurkat cells (CD28); MFI over CD80 WT IgV-Fc

Row | Fold change to WT CD80 | Binder
43 | 13.4 fold | B1
44 | 25.2 fold | B2
45 | 35.7 fold | B3
46 | 18.7 fold | B4
47 | 31.6 fold | B5

target: CD28 (human) (UniProt P10747); assay: flow cytometry, Jurkat cells (CD28)

Row | MFI at 33.3 nM | Binder
48 | 1370 MFI | B1
49 | 2570 MFI | B2
50 | 3640 MFI | B3
51 | 1910 MFI | B4
52 | 3230 MFI | B5

target: human CTLA-4 (human) (UniProt P16410); assay: flow cytometry, Expi293F cells transfected with CTLA-4

Row | MFI | parental ratio | Binder
53 | 1400 MFI | 0.03 | B6
54 | 6 MFI | 0.03 | B7
55 | 263 MFI | 1.26 | B8
56 | 128 MFI | 0.61 | B9
57 | 6 MFI | 0.03 | B10
58 | 6 MFI | 0.03 | B11
59 | 160 MFI | 0.77 | B12
60 | 14 MFI | 0.07 | B13
61 | 7 MFI | 0.04 | B14
62 | 134 MFI | 0.64 | B15
63 | 74 MFI | 0.36 | B17
64 | 996 MFI | 0.02 | B18
65 | 1020 MFI | 0.02 | B19

target: CD28 (human) (UniProt P10747); assay: flow cytometry, Expi293F cells transfected with CD28

Row | MFI | parental ratio | Binder
66 | 1170 MFI | 0.09 | B6
67 | 6 MFI | 0.06 | B7
68 | 89 MFI | 0.94 | B8
69 | 50 MFI | 0.53 | B9
70 | 6 MFI | 0.06 | B10
71 | 5 MFI | 0.05 | B11
72 | 98 MFI | 1.03 | B12
73 | 8 MFI | 0.09 | B13
74 | 5 MFI | 0.06 | B14
75 | 88 MFI | 0.92 | B15
76 | 39 MFI | 0.41 | B16
77 | 20 MFI | 0.21 | B17
78 | 1030 MFI | 0.08 | B18
79 | 1070 MFI | 0.08 | B19

target: human PD-L1 (human) (UniProt Q9NZQ7); assay: flow cytometry, CHO cells stably expressing PD-L1

Row | MFI at 33.3 nM | Binder
80 | 68500 MFI | B1
81 | 64900 MFI | B2
82 | 67300 MFI | B3
83 | 67000 MFI | B4
84 | 64900 MFI | B5

target: human CTLA-4 (human) (UniProt P16410); assay: flow cytometry, CHO cells stably expressing CTLA4

Row | MFI at 33.3 nM | Binder
85 | 20900 MFI | B1
86 | 21900 MFI | B2
87 | 22900 MFI | B3
88 | 23400 MFI | B4
89 | 23600 MFI | B5

Reference: patent publication US20220177587A1, “METHODS AND USES OF VARIANT CD80 FUSION PROTEINS AND RELATED CONSTRUCTS” (Alpine Immune Sciences, Inc., priority 2018, published 2022)
